Tests used:
Jak2 = Jak2 (UniProt O60674); test: phosphorylation enrichment, bacterial display (enrichment ratio); higher = better substrate or ligand; peptides without Tyr show the background
Fer (mouse) = test: as above
Fyn = Fyn (UniProt P06241); test: as above
AncSZ = test: as above
MERTK = MERTK (UniProt Q12866); test: as above
c-Abl (mouse) = test: as above
Hck = Hck (UniProt P08631); test: as above
c-Src = test: as above
Fes = Fes (UniProt P07332); test: as above
EPHB1 = EPHB1 (UniProt P54762); test: as above
FGFR1 = FGFR1 (UniProt P11362); test: as above
FGFR3 = FGFR3 (UniProt P22607); test: as above
EPHB2 = EPHB2 (UniProt P29323); test: as above
Grb2 SH2 = Grb2 SH2 (UniProt P62993); test: SH2 binding enrichment of the phosphorylated peptide, bacterial display (enrichment ratio); higher = better substrate or ligand; peptides without Tyr show the background
SHP2-C SH2 = test: as above
c-Src SH2 = test: as above
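Throughout, for SH2 binding enrichment of the phosphorylated peptide, bacterial display: peptide library displayed on the E. coli surface as eCPX fusions, selected cells deep-sequenced, score is each peptide's frequency after selection divided by its frequency in the input.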
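Throughout, for phosphorylation enrichment, bacterial display: 11-residue human phosphosite peptides and single-mutation variants displayed on the E. coli surface, counted by deep sequencing, each peptide's frequency after selection divided by its frequency in the unselected input library; frequency after pTyr selection over input frequency; kinase dosed for 20-30% of maximal phosphorylation in three min.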

Chain of EPHB1 (P54762 whole entry, looked up): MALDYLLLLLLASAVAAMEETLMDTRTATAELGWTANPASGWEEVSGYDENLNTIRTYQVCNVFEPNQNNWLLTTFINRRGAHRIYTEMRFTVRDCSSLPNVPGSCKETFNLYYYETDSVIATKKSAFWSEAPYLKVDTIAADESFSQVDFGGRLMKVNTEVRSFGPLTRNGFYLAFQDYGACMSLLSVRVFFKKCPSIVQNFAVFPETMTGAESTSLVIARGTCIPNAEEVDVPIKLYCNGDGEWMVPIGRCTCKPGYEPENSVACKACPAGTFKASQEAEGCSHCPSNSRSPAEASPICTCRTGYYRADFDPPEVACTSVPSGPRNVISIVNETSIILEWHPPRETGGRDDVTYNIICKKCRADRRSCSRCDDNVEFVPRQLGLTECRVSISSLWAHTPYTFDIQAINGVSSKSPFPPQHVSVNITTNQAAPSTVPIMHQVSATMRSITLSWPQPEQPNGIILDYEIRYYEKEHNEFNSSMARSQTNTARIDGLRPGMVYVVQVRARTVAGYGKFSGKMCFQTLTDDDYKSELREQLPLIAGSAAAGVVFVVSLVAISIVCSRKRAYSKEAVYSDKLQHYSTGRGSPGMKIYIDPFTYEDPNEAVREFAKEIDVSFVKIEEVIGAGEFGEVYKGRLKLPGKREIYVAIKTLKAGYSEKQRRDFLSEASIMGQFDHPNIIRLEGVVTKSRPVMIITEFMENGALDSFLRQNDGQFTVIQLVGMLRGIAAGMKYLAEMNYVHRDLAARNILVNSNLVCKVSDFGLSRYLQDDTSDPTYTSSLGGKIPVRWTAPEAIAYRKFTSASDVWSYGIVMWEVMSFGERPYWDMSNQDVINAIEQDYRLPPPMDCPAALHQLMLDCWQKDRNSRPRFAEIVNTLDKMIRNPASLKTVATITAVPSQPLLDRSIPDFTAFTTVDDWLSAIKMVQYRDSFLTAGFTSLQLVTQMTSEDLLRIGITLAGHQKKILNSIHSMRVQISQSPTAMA
Chain of Fyn (P06241 whole entry, looked up): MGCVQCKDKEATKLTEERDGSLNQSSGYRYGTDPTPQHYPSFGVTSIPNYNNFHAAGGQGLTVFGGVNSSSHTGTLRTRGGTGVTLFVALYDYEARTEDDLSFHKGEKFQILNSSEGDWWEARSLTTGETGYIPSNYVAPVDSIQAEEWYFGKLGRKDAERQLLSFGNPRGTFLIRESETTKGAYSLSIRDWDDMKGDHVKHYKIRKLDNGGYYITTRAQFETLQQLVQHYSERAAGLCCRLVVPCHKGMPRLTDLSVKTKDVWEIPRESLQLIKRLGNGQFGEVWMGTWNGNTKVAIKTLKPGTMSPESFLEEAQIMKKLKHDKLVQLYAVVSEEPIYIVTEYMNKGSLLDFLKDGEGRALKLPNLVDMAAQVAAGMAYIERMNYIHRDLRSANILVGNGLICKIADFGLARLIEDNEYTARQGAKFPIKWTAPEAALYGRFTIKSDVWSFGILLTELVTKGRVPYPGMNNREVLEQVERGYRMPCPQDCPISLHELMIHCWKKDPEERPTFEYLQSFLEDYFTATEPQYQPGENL
Chain of Jak2 (O60674 whole entry, looked up): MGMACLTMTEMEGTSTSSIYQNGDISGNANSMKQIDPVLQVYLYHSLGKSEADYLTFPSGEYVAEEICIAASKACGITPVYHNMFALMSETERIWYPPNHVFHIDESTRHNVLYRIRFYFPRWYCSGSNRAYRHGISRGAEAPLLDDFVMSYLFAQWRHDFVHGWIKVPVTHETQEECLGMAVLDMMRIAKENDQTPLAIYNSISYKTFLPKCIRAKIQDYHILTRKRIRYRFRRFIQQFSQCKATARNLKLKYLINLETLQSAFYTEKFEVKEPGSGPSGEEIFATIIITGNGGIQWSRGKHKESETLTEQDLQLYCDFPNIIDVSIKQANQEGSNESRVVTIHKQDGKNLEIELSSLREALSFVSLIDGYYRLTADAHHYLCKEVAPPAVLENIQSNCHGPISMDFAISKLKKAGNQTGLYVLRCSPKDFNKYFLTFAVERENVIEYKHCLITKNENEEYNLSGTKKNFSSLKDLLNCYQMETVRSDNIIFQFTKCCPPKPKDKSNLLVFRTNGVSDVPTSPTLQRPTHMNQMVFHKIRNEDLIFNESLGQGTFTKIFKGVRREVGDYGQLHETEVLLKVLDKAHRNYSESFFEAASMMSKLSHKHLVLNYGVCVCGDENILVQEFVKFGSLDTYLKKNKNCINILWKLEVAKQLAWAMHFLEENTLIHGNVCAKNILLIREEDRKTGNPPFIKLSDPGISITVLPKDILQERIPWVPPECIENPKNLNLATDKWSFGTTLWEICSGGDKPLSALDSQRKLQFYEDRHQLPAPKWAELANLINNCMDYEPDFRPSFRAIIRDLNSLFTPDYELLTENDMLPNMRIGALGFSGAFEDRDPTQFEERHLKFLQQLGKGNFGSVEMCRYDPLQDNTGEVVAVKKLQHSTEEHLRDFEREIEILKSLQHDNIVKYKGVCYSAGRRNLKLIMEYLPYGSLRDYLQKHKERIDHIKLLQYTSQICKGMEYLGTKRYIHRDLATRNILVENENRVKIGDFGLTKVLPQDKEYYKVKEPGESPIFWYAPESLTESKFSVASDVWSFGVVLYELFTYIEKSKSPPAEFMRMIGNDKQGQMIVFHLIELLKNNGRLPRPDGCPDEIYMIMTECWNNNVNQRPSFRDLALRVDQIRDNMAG
Chain of Hck (P08631 whole entry, looked up): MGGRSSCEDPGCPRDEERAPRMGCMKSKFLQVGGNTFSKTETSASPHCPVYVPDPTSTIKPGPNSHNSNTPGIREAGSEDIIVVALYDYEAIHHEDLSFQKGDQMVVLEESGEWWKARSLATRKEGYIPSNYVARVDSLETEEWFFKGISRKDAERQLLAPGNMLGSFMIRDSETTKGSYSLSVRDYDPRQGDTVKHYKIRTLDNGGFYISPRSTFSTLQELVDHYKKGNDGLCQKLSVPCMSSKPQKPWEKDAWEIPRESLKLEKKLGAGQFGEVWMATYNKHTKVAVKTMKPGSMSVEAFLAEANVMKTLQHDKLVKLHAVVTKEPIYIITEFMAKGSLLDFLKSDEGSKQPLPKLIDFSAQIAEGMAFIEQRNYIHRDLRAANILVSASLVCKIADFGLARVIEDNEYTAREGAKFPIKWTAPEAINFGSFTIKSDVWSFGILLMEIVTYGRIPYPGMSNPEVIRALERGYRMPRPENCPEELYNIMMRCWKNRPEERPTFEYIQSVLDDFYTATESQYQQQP
Chain of MERTK (Q12866 whole entry, looked up): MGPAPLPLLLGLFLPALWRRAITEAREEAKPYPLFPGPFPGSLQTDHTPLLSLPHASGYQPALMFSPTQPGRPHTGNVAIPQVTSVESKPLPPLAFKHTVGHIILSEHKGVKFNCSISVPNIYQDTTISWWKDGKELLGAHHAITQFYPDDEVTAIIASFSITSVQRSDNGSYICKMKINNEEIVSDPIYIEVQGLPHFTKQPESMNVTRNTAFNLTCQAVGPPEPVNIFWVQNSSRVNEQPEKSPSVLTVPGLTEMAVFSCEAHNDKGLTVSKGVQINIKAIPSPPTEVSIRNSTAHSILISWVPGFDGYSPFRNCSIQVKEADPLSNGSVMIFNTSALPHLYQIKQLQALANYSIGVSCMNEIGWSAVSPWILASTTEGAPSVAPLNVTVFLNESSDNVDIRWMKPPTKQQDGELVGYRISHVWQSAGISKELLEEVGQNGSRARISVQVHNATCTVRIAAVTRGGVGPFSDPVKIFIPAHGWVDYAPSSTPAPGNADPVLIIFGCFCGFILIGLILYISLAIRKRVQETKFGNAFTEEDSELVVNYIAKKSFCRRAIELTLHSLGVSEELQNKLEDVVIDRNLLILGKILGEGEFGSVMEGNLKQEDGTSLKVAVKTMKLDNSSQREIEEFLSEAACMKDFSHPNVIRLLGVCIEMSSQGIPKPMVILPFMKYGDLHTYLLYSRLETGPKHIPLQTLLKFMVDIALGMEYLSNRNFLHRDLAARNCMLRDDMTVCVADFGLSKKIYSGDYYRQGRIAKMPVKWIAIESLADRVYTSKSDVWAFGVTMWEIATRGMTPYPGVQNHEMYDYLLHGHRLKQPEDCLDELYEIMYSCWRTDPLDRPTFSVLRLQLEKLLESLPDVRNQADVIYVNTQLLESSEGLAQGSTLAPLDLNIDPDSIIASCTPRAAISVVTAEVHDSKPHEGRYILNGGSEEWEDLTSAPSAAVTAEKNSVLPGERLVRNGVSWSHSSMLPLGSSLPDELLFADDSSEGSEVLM
Chain of Fes (P07332 whole entry, looked up): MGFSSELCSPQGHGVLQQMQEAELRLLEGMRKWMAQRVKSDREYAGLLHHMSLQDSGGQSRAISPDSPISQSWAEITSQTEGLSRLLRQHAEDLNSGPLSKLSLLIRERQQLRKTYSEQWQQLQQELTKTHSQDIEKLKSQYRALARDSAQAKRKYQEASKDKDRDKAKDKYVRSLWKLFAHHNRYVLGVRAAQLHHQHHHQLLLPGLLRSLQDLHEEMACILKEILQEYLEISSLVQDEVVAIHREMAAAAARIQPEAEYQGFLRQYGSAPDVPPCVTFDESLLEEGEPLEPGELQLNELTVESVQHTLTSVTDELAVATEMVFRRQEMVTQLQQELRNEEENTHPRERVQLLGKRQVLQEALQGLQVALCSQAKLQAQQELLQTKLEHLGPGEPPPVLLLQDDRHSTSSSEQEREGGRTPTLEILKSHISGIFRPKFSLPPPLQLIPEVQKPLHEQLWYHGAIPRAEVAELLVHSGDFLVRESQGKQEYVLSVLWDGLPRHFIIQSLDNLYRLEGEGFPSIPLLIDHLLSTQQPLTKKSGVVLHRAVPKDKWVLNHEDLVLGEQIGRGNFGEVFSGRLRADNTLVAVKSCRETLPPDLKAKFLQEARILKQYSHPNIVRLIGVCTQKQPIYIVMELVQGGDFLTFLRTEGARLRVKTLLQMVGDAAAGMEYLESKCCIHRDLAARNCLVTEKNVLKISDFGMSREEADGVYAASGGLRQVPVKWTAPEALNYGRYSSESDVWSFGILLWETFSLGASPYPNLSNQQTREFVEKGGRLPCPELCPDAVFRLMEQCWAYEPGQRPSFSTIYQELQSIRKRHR

## PSPMPYAFCQM [FOXL2_Y215_S217F]
Jak2
  phosphorylation enrichment: 1.75
Fer (mouse)
  phosphorylation enrichment: 9.08
Fyn
  phosphorylation enrichment: 0.706
AncSZ
  phosphorylation enrichment: 1.87
MERTK
  phosphorylation enrichment: 1.41
c-Abl (mouse)
  phosphorylation enrichment: 1.44
Hck
  phosphorylation enrichment: 0.934
c-Src
  phosphorylation enrichment: 1.99
Fes
  phosphorylation enrichment: 2.17
EPHB1
  phosphorylation enrichment: 1.3
FGFR1
  phosphorylation enrichment: 2.61
FGFR3
  phosphorylation enrichment: 2.31
EPHB2
  phosphorylation enrichment: 1.28
Grb2 SH2
  SH2 binding enrichment: 0.64
SHP2-C SH2
  SH2 binding enrichment: 0.774
c-Src SH2
  SH2 binding enrichment: 1.7

## PSRKDYETYQS [CTNND2_Y1154_P1159S]
Jak2
  phosphorylation enrichment: 0.94
Fer (mouse)
  phosphorylation enrichment: 0.55
Fyn
  phosphorylation enrichment: 0.543
AncSZ
  phosphorylation enrichment: 0.875
MERTK
  phosphorylation enrichment: 0.474
c-Abl (mouse)
  phosphorylation enrichment: 0.729
Hck
  phosphorylation enrichment: 0.764
c-Src
  phosphorylation enrichment: 0.948
Fes
  phosphorylation enrichment: 1.17
EPHB1
  phosphorylation enrichment: 0.827
FGFR1
  phosphorylation enrichment: 0.539
FGFR3
  phosphorylation enrichment: 0.704
EPHB2
  phosphorylation enrichment: 1.03
Grb2 SH2
  SH2 binding enrichment: 0.976
SHP2-C SH2
  SH2 binding enrichment: 0.899
c-Src SH2
  SH2 binding enrichment: 0.746

## PTDCVYVMPTV [MYO7A_Y1668_S1666C]
Jak2
  phosphorylation enrichment: 1.1
Fer (mouse)
  phosphorylation enrichment: 1.08
Fyn
  phosphorylation enrichment: 8.41
AncSZ
  phosphorylation enrichment: 5.31
MERTK
  phosphorylation enrichment: 6.63
c-Abl (mouse)
  phosphorylation enrichment: 7.37
Hck
  phosphorylation enrichment: 4.49
c-Src
  phosphorylation enrichment: 4.95
Fes
  phosphorylation enrichment: 1.06
EPHB1
  phosphorylation enrichment: 3.34
FGFR1
  phosphorylation enrichment: 5
FGFR3
  phosphorylation enrichment: 3.92
EPHB2
  phosphorylation enrichment: 2.4
Grb2 SH2
  SH2 binding enrichment: 1.01
SHP2-C SH2
  SH2 binding enrichment: 0.716
c-Src SH2
  SH2 binding enrichment: 0.642

## PTDSVYVMPTV [MYO7A_Y1668]
Jak2
  phosphorylation enrichment: 0.827
Fer (mouse)
  phosphorylation enrichment: 0.77
Fyn
  phosphorylation enrichment: 8.58
AncSZ
  phosphorylation enrichment: 2.78
MERTK
  phosphorylation enrichment: 8.35
c-Abl (mouse)
  phosphorylation enrichment: 3.01
Hck
  phosphorylation enrichment: 3.43
c-Src
  phosphorylation enrichment: 4.43
Fes
  phosphorylation enrichment: 0.926
EPHB1
  phosphorylation enrichment: 1.15
FGFR1
  phosphorylation enrichment: 2.32
FGFR3
  phosphorylation enrichment: 1.68
EPHB2
  phosphorylation enrichment: 0.708
Grb2 SH2
  SH2 binding enrichment: 0.911
SHP2-C SH2
  SH2 binding enrichment: 0.683
c-Src SH2
  SH2 binding enrichment: 0.429

## PTKNDYWAMLA [WWOX_Y287]
Jak2
  phosphorylation enrichment: 1.12
Fer (mouse)
  phosphorylation enrichment: 0.447
Fyn
  phosphorylation enrichment: 0.695
AncSZ
  phosphorylation enrichment: 1.64
MERTK
  phosphorylation enrichment: 0.443
c-Abl (mouse)
  phosphorylation enrichment: 0.939
Hck
  phosphorylation enrichment: 0.705
c-Src
  phosphorylation enrichment: 0.912
Fes
  phosphorylation enrichment: 1.5
EPHB1
  phosphorylation enrichment: 1.78
FGFR1
  phosphorylation enrichment: 7.82
FGFR3
  phosphorylation enrichment: 4.3
EPHB2
  phosphorylation enrichment: 1.61
Grb2 SH2
  SH2 binding enrichment: 1.07
SHP2-C SH2
  SH2 binding enrichment: 0.617
c-Src SH2
  SH2 binding enrichment: 0.721

## PTTKTYFPHFA [HBA1_Y43_D48A]
Jak2
  phosphorylation enrichment: 0.469
Fer (mouse)
  phosphorylation enrichment: 0.384
Fyn
  phosphorylation enrichment: 0.798
AncSZ
  phosphorylation enrichment: 0.796
MERTK
  phosphorylation enrichment: 0.675
c-Abl (mouse)
  phosphorylation enrichment: 0.646
Hck
  phosphorylation enrichment: 0.754
c-Src
  phosphorylation enrichment: 0.781
Fes
  phosphorylation enrichment: 0.724
EPHB1
  phosphorylation enrichment: 0.572
FGFR1
  phosphorylation enrichment: 0.313
FGFR3
  phosphorylation enrichment: 0.599
EPHB2
  phosphorylation enrichment: 0.386
Grb2 SH2
  SH2 binding enrichment: 0.714
SHP2-C SH2
  SH2 binding enrichment: 0.734
c-Src SH2
  SH2 binding enrichment: 0.496

## PTYENYANSTQ [SLC12A3_Y70_H69N]
Jak2
  phosphorylation enrichment: 0.518
Fer (mouse)
  phosphorylation enrichment: 0.69
Fyn
  phosphorylation enrichment: 4.03
AncSZ
  phosphorylation enrichment: 1.06
MERTK
  phosphorylation enrichment: 0.927
c-Abl (mouse)
  phosphorylation enrichment: 0.418
Hck
  phosphorylation enrichment: 2.12
c-Src
  phosphorylation enrichment: 5.43
Fes
  phosphorylation enrichment: 0.743
EPHB1
  phosphorylation enrichment: 4.39
FGFR1
  phosphorylation enrichment: 0.593
FGFR3
  phosphorylation enrichment: 0.555
EPHB2
  phosphorylation enrichment: 3.36
Grb2 SH2
  SH2 binding enrichment: 19.9
SHP2-C SH2
  SH2 binding enrichment: 0.728
c-Src SH2
  SH2 binding enrichment: 2.96

## PVADPYDQSFE [MAPK14_Y323]
Jak2
  phosphorylation enrichment: 2.29
Fer (mouse)
  phosphorylation enrichment: 0.759
Fyn
  phosphorylation enrichment: 0.828
AncSZ
  phosphorylation enrichment: 1.66
MERTK
  phosphorylation enrichment: 0.894
c-Abl (mouse)
  phosphorylation enrichment: 2.38
Hck
  phosphorylation enrichment: 0.989
c-Src
  phosphorylation enrichment: 0.982
Fes
  phosphorylation enrichment: 1.86
EPHB1
  phosphorylation enrichment: 0.695
FGFR1
  phosphorylation enrichment: 0.941
FGFR3
  phosphorylation enrichment: 0.896
EPHB2
  phosphorylation enrichment: 0.632
Grb2 SH2
  SH2 binding enrichment: 0.927
SHP2-C SH2
  SH2 binding enrichment: 0.797
c-Src SH2
  SH2 binding enrichment: 0.971

## PVDVAYRHGFF [PLEC_Y2967_R2969H_YF]
Jak2
  phosphorylation enrichment: 0.511
Fer (mouse)
  phosphorylation enrichment: 0.342
Fyn
  phosphorylation enrichment: 0.324
AncSZ
  phosphorylation enrichment: 0.482
MERTK
  phosphorylation enrichment: 0.366
c-Abl (mouse)
  phosphorylation enrichment: 0.473
Hck
  phosphorylation enrichment: 0.553
c-Src
  phosphorylation enrichment: 0.325
Fes
  phosphorylation enrichment: 0.85
EPHB1
  phosphorylation enrichment: 0.32
FGFR1
  phosphorylation enrichment: 0.574
FGFR3
  phosphorylation enrichment: 0.458
EPHB2
  phosphorylation enrichment: 0.268
Grb2 SH2
  SH2 binding enrichment: 0.722
SHP2-C SH2
  SH2 binding enrichment: 0.576
c-Src SH2
  SH2 binding enrichment: 0.552

## QADIIYVNTQL [MERTK_Y872_V870I]
Jak2
  phosphorylation enrichment: 1.05
Fer (mouse)
  phosphorylation enrichment: 4.18
Fyn
  phosphorylation enrichment: 1.09
AncSZ
  phosphorylation enrichment: 1.28
MERTK
  phosphorylation enrichment: 0.571
c-Abl (mouse)
  phosphorylation enrichment: 1.02
Hck
  phosphorylation enrichment: 0.886
c-Src
  phosphorylation enrichment: 1.24
Fes
  phosphorylation enrichment: 1.29
EPHB1
  phosphorylation enrichment: 1.18
FGFR1
  phosphorylation enrichment: 0.712
FGFR3
  phosphorylation enrichment: 0.84
EPHB2
  phosphorylation enrichment: 0.518
Grb2 SH2
  SH2 binding enrichment: 0.916
SHP2-C SH2
  SH2 binding enrichment: 0.543
c-Src SH2
  SH2 binding enrichment: 0.475

## QDGYSYPSRQM [LDLR_Y847]
Jak2
  phosphorylation enrichment: 1.17
Fer (mouse)
  phosphorylation enrichment: 0.557
Fyn
  phosphorylation enrichment: 0.624
AncSZ
  phosphorylation enrichment: 1.98
MERTK
  phosphorylation enrichment: 0.983
c-Abl (mouse)
  phosphorylation enrichment: 0.663
Hck
  phosphorylation enrichment: 0.475
c-Src
  phosphorylation enrichment: 0.734
Fes
  phosphorylation enrichment: 1.21
EPHB1
  phosphorylation enrichment: 0.49
FGFR1
  phosphorylation enrichment: 0.88
FGFR3
  phosphorylation enrichment: 0.87
EPHB2
  phosphorylation enrichment: 0.576
Grb2 SH2
  SH2 binding enrichment: 0.857
SHP2-C SH2
  SH2 binding enrichment: 0.732
c-Src SH2
  SH2 binding enrichment: 6.19

## QDRTFYERVRT [SPEN_Y633_S635R_YF]
Jak2
  phosphorylation enrichment: 0.509
Fer (mouse)
  phosphorylation enrichment: 3.63
Fyn
  phosphorylation enrichment: 0.403
AncSZ
  phosphorylation enrichment: 0.583
MERTK
  phosphorylation enrichment: 0.539
c-Abl (mouse)
  phosphorylation enrichment: 0.582
Hck
  phosphorylation enrichment: 1.2
c-Src
  phosphorylation enrichment: 0.402
Fes
  phosphorylation enrichment: 0.591
EPHB1
  phosphorylation enrichment: 0.416
FGFR1
  phosphorylation enrichment: 0.529
FGFR3
  phosphorylation enrichment: 0.441
EPHB2
  phosphorylation enrichment: 0.42
Grb2 SH2
  SH2 binding enrichment: 0.603
SHP2-C SH2
  SH2 binding enrichment: 4.46
c-Src SH2
  SH2 binding enrichment: 2.36

## QDTSRYTVSNL [BIRC3_Y245]
Jak2
  phosphorylation enrichment: 0.644
Fer (mouse)
  phosphorylation enrichment: 0.501
Fyn
  phosphorylation enrichment: 0.523
AncSZ
  phosphorylation enrichment: 0.971
MERTK
  phosphorylation enrichment: 0.567
c-Abl (mouse)
  phosphorylation enrichment: 0.804
Hck
  phosphorylation enrichment: 0.467
c-Src
  phosphorylation enrichment: 0.617
Fes
  phosphorylation enrichment: 0.824
EPHB1
  phosphorylation enrichment: 0.675
FGFR1
  phosphorylation enrichment: 0.516
FGFR3
  phosphorylation enrichment: 0.71
EPHB2
  phosphorylation enrichment: 0.467
Grb2 SH2
  SH2 binding enrichment: 0.879
SHP2-C SH2
  SH2 binding enrichment: 0.54
c-Src SH2
  SH2 binding enrichment: 0.453

## QEGPEYWDEET [HLA-A_Y83_Q86E]
Jak2
  phosphorylation enrichment: 1.38
Fer (mouse)
  phosphorylation enrichment: 0.951
Fyn
  phosphorylation enrichment: 1.02
AncSZ
  phosphorylation enrichment: 2.5
MERTK
  phosphorylation enrichment: 1.07
c-Abl (mouse)
  phosphorylation enrichment: 1.32
Hck
  phosphorylation enrichment: 1.05
c-Src
  phosphorylation enrichment: 0.796
Fes
  phosphorylation enrichment: 1.88
EPHB1
  phosphorylation enrichment: 1.25
FGFR1
  phosphorylation enrichment: 1.24
FGFR3
  phosphorylation enrichment: 1.33
EPHB2
  phosphorylation enrichment: 1.25
Grb2 SH2
  SH2 binding enrichment: 0.91
SHP2-C SH2
  SH2 binding enrichment: 0.699
c-Src SH2
  SH2 binding enrichment: 0.646

## QEGPEYWDRNT [HLA-B_Y83]
Jak2
  phosphorylation enrichment: 0.806
Fer (mouse)
  phosphorylation enrichment: 0.557
Fyn
  phosphorylation enrichment: 0.763
AncSZ
  phosphorylation enrichment: 1.36
MERTK
  phosphorylation enrichment: 0.49
c-Abl (mouse)
  phosphorylation enrichment: 0.757
Hck
  phosphorylation enrichment: 0.685
c-Src
  phosphorylation enrichment: 0.485
Fes
  phosphorylation enrichment: 1.29
EPHB1
  phosphorylation enrichment: 0.9
FGFR1
  phosphorylation enrichment: 1.03
FGFR3
  phosphorylation enrichment: 0.913
EPHB2
  phosphorylation enrichment: 0.741
Grb2 SH2
  SH2 binding enrichment: 0.856
SHP2-C SH2
  SH2 binding enrichment: 0.711
c-Src SH2
  SH2 binding enrichment: 0.377

## QGIFGYHHFMQ [UFSP2_Y287_YF]
Jak2
  phosphorylation enrichment: 1.27
Fer (mouse)
  phosphorylation enrichment: 0.857
Fyn
  phosphorylation enrichment: 0.615
AncSZ
  phosphorylation enrichment: 1.32
MERTK
  phosphorylation enrichment: 0.549
c-Abl (mouse)
  phosphorylation enrichment: 1.13
Hck
  phosphorylation enrichment: 0.692
c-Src
  phosphorylation enrichment: 0.531
Fes
  phosphorylation enrichment: 1.41
EPHB1
  phosphorylation enrichment: 0.794
FGFR1
  phosphorylation enrichment: 0.838
FGFR3
  phosphorylation enrichment: 0.93
EPHB2
  phosphorylation enrichment: 0.59
Grb2 SH2
  SH2 binding enrichment: 1.47
SHP2-C SH2
  SH2 binding enrichment: 1.23
c-Src SH2
  SH2 binding enrichment: 1.2
